Assay results taken from patent publication US20220153832A1 (PIONYR IMMUNOTHERAPEUTICS, published 2022).
Positions count from the first letter of the chain named. One block for each binder: values may come before it.

Experiments:
[1] = target: T1, N-terminally polyhistidine tagged human MARCO ECD (147-520), recombinant (human, UniProt Q9UEW3 147-520); test: ELISA on hMARCO ECD with 2 mM Ca2+, A450-A620
T1 construct: also called PI-RG-3000; recombinant human MARCO; not shown: N-terminal polyhistidine tag
T1 sequence: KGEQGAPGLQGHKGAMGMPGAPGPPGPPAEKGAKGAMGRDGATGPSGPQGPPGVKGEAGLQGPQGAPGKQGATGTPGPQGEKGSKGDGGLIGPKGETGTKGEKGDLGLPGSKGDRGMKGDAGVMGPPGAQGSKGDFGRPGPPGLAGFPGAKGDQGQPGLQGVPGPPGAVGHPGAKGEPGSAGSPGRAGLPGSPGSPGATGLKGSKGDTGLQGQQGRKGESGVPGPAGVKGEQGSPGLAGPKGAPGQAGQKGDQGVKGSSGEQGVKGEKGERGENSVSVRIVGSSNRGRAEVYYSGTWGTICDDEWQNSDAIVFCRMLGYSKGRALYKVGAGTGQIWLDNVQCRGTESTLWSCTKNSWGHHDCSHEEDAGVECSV

[2] = target: T1, N-terminally polyhistidine tagged human …; test: ELISA on hMARCO ECD with 2 mM EDTA, A450-A620
[3] = target: T1, N-terminally polyhistidine tagged human …; test: Biacore (SPR), binding affinity to human MARCO
Method in brief: (§1)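 On a CM4 chip, anti-mouse Fc mAb was amine-coupled to a 4500 RU target and used to capture the antibodies. Their binding kinetics and affinity for N-terminally His-tagged human MARCO extracellular domain (147-520) were then measured by multi-cycle surface plasmon resonance on a Biacore T200. This was done at 25° C in 10 mM HEPES pH 7.4, 150 mM NaCl, 3 mM EDTA, 0.05% surfactant P20, with 0.625–10 nM injections, 90 s association and 600 s dissociation, and fitting in BIAevaluation 3.1.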

[4] = target: T1, N-terminally polyhistidine tagged human …; test: Biacore (SPR), recombinant human MARCO
Method in brief: as §1

[5] = target: T1, N-terminally polyhistidine tagged human …; test: ELISA readout A450-A620; the panel names no target, the legend says MARCO expressing cells; transiently made reference antibody
[6] = target: T1, N-terminally polyhistidine tagged human …; test: Biacore; sample stressed 40 C 2 week
Experimental: Binding of the stressed samples to recombinant human MARCO was assessed by Biacore.

[7] = target: T1, N-terminally polyhistidine tagged human …; test: Biacore; deamidation stress sample (40 C 2 week)
[8] = target: T1, N-terminally polyhistidine tagged human …; test: ELISA readout A450-A620; the panel names no target, the legend says MARCO expressing cells; stable transfection pools
[9] = target: T1, N-terminally polyhistidine tagged human …; test: Biacore, recombinant human MARCO; control sample
[10] = target: T2, Cynomolgus MARCO, full length, on cells (cynomolgus, UniProt A0A2K5X0Z2 1-519); test: flow cytometry, cells overexpressing cyno MARCO; cyn (second of hu/cyn)
T2 construct: whole, on cells; also called cyno MARCO; CyMARCO
T2 sequence: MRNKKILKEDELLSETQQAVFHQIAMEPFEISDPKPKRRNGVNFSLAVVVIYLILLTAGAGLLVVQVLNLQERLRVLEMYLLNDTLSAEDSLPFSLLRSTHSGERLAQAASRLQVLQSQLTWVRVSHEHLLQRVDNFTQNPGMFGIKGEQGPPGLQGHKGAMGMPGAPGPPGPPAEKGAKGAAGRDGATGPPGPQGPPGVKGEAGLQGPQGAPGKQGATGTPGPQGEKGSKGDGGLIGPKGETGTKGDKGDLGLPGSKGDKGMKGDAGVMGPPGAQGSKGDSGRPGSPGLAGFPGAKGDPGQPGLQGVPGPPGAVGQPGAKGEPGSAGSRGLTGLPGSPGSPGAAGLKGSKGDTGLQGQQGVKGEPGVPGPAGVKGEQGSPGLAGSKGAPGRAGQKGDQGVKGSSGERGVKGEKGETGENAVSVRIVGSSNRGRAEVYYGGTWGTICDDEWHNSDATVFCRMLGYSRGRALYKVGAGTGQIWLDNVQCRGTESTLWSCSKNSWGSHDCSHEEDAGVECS

[11] = target: T3, recombinant cynomolgus MARCO protein (cynomolgus, UniProt A0A2K5X0Z2 65-519); test: Biacore (SPR), recombinant cyno MARCO
T3 construct: Construct not described; also called cyno MARCO; cynoMARCO
T3 sequence: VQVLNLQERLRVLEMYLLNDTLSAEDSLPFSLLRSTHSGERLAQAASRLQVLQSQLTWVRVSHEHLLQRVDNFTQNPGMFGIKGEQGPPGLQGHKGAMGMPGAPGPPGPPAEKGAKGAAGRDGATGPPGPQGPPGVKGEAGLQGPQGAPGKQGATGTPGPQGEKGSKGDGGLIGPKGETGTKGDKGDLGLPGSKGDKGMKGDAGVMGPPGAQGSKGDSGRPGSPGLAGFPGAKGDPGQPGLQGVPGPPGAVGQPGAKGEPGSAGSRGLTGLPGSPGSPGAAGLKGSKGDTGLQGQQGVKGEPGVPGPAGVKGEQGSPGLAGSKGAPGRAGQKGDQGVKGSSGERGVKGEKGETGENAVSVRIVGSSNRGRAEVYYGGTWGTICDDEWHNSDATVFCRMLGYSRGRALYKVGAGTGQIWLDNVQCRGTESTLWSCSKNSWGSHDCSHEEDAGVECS

[12] = target: T1, N-terminally polyhistidine tagged human …; test: Biacore; isomerization/fragmentation stress sample
[13] = target: T4, Human Macrophage Receptor with Collagenous Structure (MARCO), full length, on cells (human, UniProt Q9UEW3 1-520); test: flow cytometry, cells overexpressing human MARCO; hu (first of hu/cyn)
T4 construct: the cell type is named under assay; also called huMARCO; HuMARCO
T4 sequence: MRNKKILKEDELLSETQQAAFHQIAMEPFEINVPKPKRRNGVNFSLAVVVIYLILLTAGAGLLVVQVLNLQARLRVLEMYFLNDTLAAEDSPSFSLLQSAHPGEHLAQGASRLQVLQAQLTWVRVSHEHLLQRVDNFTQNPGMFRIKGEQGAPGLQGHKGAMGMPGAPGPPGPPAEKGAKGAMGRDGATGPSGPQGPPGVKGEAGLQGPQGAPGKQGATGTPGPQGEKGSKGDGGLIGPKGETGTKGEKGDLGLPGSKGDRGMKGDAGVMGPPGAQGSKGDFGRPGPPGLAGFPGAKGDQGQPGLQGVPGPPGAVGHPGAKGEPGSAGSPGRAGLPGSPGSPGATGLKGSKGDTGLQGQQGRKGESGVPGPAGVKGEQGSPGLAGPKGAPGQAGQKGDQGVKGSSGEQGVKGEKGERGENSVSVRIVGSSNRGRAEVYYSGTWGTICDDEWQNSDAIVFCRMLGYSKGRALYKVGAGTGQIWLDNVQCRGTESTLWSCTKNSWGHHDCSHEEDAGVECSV

[14] = target: T4, Human Macrophage Receptor with …; test: cell-based competition with AF488 E. coli binding to cells expressing MARCO
Experimental: Zombie NIR viability dye (BioLegend), prepared by diluting the stock 1000-fold in D-PBS, was added to the cells and incubated for 10 min at RT in the dark. The reaction was quenched by adding 1 m of 4× Staining buffer (2% FBS in DBPS containing Ca2+), followed by centrifugation at 400×g for 5 min at 4° C. Cells were then plated in V-shaped 96 well plates at a density of 100,000 cells. A488-fluorescently labeled bacteria (E. coli from Invitrogen) was added at 10 μg/ml with the anti-human MARCO antibodies of interest for a 30 min incubation at 37 C. Plates were then washed twice followed by resuspension in 100 ul of staining buffer for acquisition on the flow cytometer (Attune NxT, Life Technologies). Flow cytometry data were analyzed using FlowJo software (version 10.6.1) and data were processed and further analyzed in Microsoft Excel and GraphPad Prism software (version 8).

[15] = target: T2, Cynomolgus MARCO, full length, on cells; test: flow cytometry, cells overexpressing cyno MARCO
[16] = target: T1, N-terminally polyhistidine tagged human …; test: SPR, single cycle (sc)
[17] = target: T3, recombinant cynomolgus MARCO protein; test: SPR, single cycle (sc)
[18] = target: T4, Human Macrophage Receptor with …; test: flow cytometry, cells overexpressing human MARCO

EC50 (read off the curve) [1]: ~900 pM | EC50 (read off the curve) [2]: ~200 pM
B1: PI-3032-AB (antibody, human IgG1, kappa, V domains shown)
VH: EVQLVESGGGLVQPGGSLRLSCAASKFTFSNYGMNWIRQAPGKGLEWIALIYYNSNNKYYADSVKGRFTISRDNSKNTLYLQMNSLRAEDTAVYYCAKSLTGGSDYFDSWGQGTLVTVSS
VL: DIQMTQSPSSLSASVGDRVTITCRASKSIGTFLAWYQQKPGKAPKLLIYSGSTLESGVPSRFSGSGSGTDFTLTISSLQPEDFATYYCQQHDEYPFTFGQGTKLEIKR
notes: calcium independent

Kd [3]: 820 pM | Kd [4]: 820 pM | koff [4]: 0.000334 s⁻¹ | EC50 (read off the curve) [5]: ~200 pM | Kd [6]: 360 pM | Kd [7]: 390 pM | EC50 (read off the curve) [1]: ~800 pM | EC50 (read off the curve) [8]: ~200 pM | Kd [9]: 240 pM | EC50 [10]: 1030 pM | Kd [11]: 1120 pM | Kd [12]: 340 pM | EC50 [13]: 704 pM
B2: PI-3041-AB (antibody, human IgG1, kappa)
heavy: not shown
light: DIQMTQSPSSLSASVGDRVTITCRASAGISNDLAWYQQKPGKAPKLLIYAASRLQDGVPSRFSGSGSGTDFTLTISSMQPEDFATYYCQQSYKYPWTFGQGTKLEIKRTVAAPSVFIFPPSDEQLKSGTASVVCLLNNFYPREAKVQWKVDNALQSGNSQESVTEQDSKDSTYSLSSTLTLSKADYEKHKVYACEVTHQGLSSPVTKSFNRGEC
notes: Humanized PI-HX-3011, hIgG1

EC50 [14]: 120 pM | EC50 [15]: 1400 pM | Kd [16]: 1130 pM | Kd [17]: 735 pM | EC50 [18]: 570 pM
B3: PI-3012-AB (antibody, human IgG1, kappa, V domains shown)
VH: QVQLQESGPGLVKPSETLSLTCTVSGFSLTSYHVSWVRQPPGKGLEWIGAIWTGGSIAYNPSLKSRVTISRDTSKNQVSLKLSSVTAADTAVYYCARDLSDYYSSYTSFDYWGQGTLVTVSS
VL: DIQMTQSPSSLSASVGDRVTITCRASEGISNDLAWYQQKPGKAPKLLIYAASRLQSGVPSRFSGSGSGTDYTLTISSLQPEDFATYYCQQSYKYPLTFGQGTKLEIKR

Kd [3]: 1090 pM | Kd [4]: 1090 pM | koff [4]: 0.00043 s⁻¹ | EC50 (read off the curve) [5]: ~200 pM | Kd [6]: 580 pM | Kd [7]: 660 pM | EC50 (read off the curve) [1]: ~1000 pM | EC50 (read off the curve) [8]: ~200 pM | Kd [9]: 540 pM | EC50 [10]: 1010 pM | Kd [11]: 1790 pM | Kd [12]: 660 pM | EC50 [13]: 790 pM
B4: PI-3025-AB (antibody, human IgG1, kappa)
heavy: not shown
light: B2 light with A27E, F71Y, M78L, W96L
notes: also called PI-3025-AB2
